# B1: Flag::mCherry::CHDP-1 (protein)
# chain: MSEEIKKIEEVAEQDKAPKVPTTEPPVDVPAPVTEEAPKVEEAVAEIAAPAAAEGETATAAAAAPEEKKKSGGVARRFTFNKRWGKHRDAEASTPKEPEAPKDPKEDVLGWIAQQIPQAVHKANYQVIDWVQKTAIPEEGERKTIPGKDQATTRNQFIGFFKDGDVLAKLANALEPGAVEVAAAEENADAAAQKEVQKKNIDAFGAWAQKTLGTEAAPVTNEDLLEKGKAGYTAVFQTLWQLGVQAKEKFDKEGFNVDTIVQLANSVVKSGLLTTILGFFRRNRQAAAAVEEPKDETAAAEGAGEAKEEGATGEVADTADEPVAVKQETSAPAAVAAN
# Target: F-actin prepared from muscle actin (Oryctolagus cuniculus (Rabbit), UniProt P68135)
# Assay: F-actin co-sedimentation
binder,measurement,value
B1,binding result,no binding

# Reference: publication PMC4944944 (2016)
